Here are results for 3 molecules from patent publication US20050010967A1, “SK3-1B GFP transgenic mouse model for spinocerebellar ataxia and hyperexcitable behavior” (The Regents of the University of California, priority 2003, published 2005).

In test [1] the target is T1, Kv1.3 channels in Jurkat T lymphocytes (Homo sapiens, UniProt P22001).
T1 construct: they express SK2 channels and no other SK channels, along with voltage-gated Kv1.3 channels; endogenous in cells; host or cells: Jurkat T lymphocytes (human)
The experiment in a line: Whole cell patch clamp of endogenous Kv1.3 current in Jurkat T lymphocytes. It is filed as cell-based. An excerpt:
(§1) Electrophysiology. PC12 and Jurkat T cells were studied in the whole cell configuration of the patch clamp technique with a holding potential of −80 mV. We determined SK and Kv current amplitude in untransfected cells or in cells transfected with SK3-1B-GFP, SK3-1BIRES-GFP or control constructs (GFP vector alone, GFP-Kv1.7). […] Brightly GFP-positive cells were identified under a fluorescence microscope to allow the analysis of cells expressing high levels of the channel constructs for electrophysiological studies. Control constructs were expressed at equivalently high levels as assessed by the intensity of the GFP signal.
(§2) To activate SK channels, the pipette solution contained (in mM): 145 K^+ aspartate, 2 MgCl2, 10 HEPES, 10 K2EGTA, and 8.5 CaCl2 (1 μM free Ca^2+), pH 7.2, 290-310 mOsm. […] The amplitude of the KV current was measured as the maximum current at 30 mV in 160 Na^+ aspartate. […]
(§3) SK3-1B suppresses other SK channels in a dominant-inhibitory manner. The inventors next determined whether SK3-1B could suppress SK2 channels. […] Using the electrophysiological protocol described above for PC12 cells, SK2 and Kv1.3 currents were measured in Jurkat cells. The inward SK2 current, detected at potentials more negative than −40 mV, was blocked by Lei-Dab (FIG. 5a), a highly specific SK2 peptide inhibitor. […]
(The patch-clamp technique gives a direct electrical read-out from membranes.)

Test [2] concerns the target T2, SK2 channels in Jurkat T lymphocytes (Homo sapiens, UniProt Q9H2S1).
T2 construct: The native SK2 current was suppressed by SK3-1B; endogenous in cells; host or cells: Jurkat T lymphocytes (human)
In words: Whole cell patch clamp of endogenous SK2 current in Jurkat T lymphocytes. It is filed as cell-based.
Source text: as §1, §2, §3

The test system of test [3] is endogenous Kv current in PC12 cells. In words: Whole cell patch clamp of endogenous Kv current in PC12 cells. It is filed as cell-based, rat. Particulars: transfected PC12 cells; 160 mM Na+ aspartate external; untransfected 707.94±147.7 pA.
Source text: as §1, §2

Test [4] concerns native SK3 in PC12 cells. In words: Immunolabeling and confocal microscopy of native SK3 localization in PC12 cells. It is filed as cell-based, rat. Particulars: transfected PC12 cells; untransfected 1.72±0.08. The method, then: Immunostaining. Following washing with Dulbecco's phosphate buffered saline (DPBS), cells were fixed with 4% paraformaldehyde for 20 min and washed 2× with DPBS. Permeabilization and blocking was done with 0.2% Triton-X-100 in 10% normal goat serum, followed by a wash with DPBS. Permeabilized cells were incubated with rabbit anti-SK3 antibody (Alomone Labs, Jerusalem, Israel) in a carrier solution containing 1% normal goat serum and 0.2 % sodium azide for 4 h at 4° C. Cells were subsequently washed and incubated with 1 μg/ml Alexa-Fluor 594 (referred to as Alexa-red)-conjugated goat-anti-rabbit-IgG (Molecular Probes) for 1 h at room temperature. […] As an additional test of antibody specificity, the anti-SK3 antibody was shown not to react with SK3-1B protein, an isoform that lacks the SK3 N-terminal epitope detected by the antibody (data not shown). […]
Confocal microscopy. […] The Scion image 4.0.2 program (Scion Corporation, Frederick, Md., USA) was used to determine the pixel intensity of fluorescence that tagged presumptive intracellular and membrane SK3 protein. Three axes were drawn through each stained cell and pixel intensities were measured along each of these axes. […] The average ratio of presumptive membrane to intracellular fluorescence was estimated from these intensity histograms. The expression level of each transfected construct was quantitated as mean pixel intensity. […]

For test [5], the target named is T3, endogenous SK3 current in PC12 cells (Rattus norvegicus, UniProt P70605).
T3 construct: these cells natively express SK3 currents; endogenous in cells; host or cells: PC12 (rat pheochromocytoma)
The experiment in a line: Whole cell patch clamp of endogenous SK (SK3) current in PC12 cells. Particulars: transfected PC12 cells, 48 h post-transfection; untransfected 6.24±1.57 nS. It is filed as cell-based.
Source text: as §1, §2

Setting [6] is: 100 nM Lei-Dab, untransfected Jurkat T lymphocytes.
[7] abbreviates: transfected Jurkat T lymphocytes, n=4.

T2 sequence (Q9H2S1 whole entry): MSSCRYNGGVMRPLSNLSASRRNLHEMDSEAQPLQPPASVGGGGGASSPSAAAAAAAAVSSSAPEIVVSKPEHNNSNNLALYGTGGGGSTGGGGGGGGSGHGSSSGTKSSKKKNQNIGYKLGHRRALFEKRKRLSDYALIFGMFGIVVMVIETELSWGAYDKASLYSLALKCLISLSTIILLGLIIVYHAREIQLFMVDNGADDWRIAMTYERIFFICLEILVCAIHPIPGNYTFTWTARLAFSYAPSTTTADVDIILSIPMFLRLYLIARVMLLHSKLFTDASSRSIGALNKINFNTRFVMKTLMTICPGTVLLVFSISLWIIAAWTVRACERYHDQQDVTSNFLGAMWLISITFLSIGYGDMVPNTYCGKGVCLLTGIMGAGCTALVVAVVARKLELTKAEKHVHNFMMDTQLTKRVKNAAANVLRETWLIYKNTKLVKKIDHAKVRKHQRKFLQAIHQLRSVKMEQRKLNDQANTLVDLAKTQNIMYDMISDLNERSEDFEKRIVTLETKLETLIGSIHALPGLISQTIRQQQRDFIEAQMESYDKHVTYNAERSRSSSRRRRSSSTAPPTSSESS
T3 sequence (P70605 whole entry): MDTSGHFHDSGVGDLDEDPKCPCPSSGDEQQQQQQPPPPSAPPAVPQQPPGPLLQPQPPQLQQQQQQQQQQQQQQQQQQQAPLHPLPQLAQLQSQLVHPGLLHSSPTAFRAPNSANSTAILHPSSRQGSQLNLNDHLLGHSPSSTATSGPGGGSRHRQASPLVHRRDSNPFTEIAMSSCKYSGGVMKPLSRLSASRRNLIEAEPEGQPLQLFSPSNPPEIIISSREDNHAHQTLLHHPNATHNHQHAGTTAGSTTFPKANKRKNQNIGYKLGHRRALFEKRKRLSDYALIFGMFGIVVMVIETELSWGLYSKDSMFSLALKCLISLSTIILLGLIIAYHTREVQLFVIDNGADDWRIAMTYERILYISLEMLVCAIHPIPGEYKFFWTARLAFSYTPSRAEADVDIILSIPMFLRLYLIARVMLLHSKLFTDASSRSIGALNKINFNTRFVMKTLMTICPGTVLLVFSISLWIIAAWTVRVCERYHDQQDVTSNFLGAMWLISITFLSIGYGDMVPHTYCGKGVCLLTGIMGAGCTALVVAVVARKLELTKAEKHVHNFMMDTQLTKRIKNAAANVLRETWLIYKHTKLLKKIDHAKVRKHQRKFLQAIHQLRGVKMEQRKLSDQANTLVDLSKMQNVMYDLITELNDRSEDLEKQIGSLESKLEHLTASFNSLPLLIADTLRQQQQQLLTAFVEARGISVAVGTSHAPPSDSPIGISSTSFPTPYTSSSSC
T1 sequence (P22001 whole entry): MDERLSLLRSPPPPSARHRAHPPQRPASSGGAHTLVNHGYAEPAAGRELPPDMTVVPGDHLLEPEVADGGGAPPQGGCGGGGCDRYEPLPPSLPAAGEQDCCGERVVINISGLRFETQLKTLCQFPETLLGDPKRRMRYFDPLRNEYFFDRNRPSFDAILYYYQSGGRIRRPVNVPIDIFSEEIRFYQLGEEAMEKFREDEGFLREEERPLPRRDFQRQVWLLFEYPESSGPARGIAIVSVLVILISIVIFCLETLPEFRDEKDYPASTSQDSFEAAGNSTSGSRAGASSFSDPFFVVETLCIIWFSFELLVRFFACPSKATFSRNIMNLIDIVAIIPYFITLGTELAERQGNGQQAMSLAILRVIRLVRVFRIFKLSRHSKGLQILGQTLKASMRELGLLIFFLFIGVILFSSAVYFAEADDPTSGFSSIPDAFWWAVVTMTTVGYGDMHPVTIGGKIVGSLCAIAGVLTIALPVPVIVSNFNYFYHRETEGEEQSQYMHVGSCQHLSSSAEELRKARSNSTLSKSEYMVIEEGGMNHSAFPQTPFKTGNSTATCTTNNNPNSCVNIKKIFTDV
native SK3 in PC12 cells, sequence (P70605 whole entry): as the sequence (P70605 whole entry) above

As to Lei-Dab [reference compound], the “Effect on Kv1.3 current” value in test [1] (setting [6]) is reported as “unaffected”. In addition, the “Effect on inward SK2 current” value in test [2] (setting [6]) was “blocked”.

B1: SK3-1B-GFP: SK3-1B coding region inserted in-frame upstream to GFP in pEGFP-N1 expression vector; GFP-tagged truncated SK3 splice variant (protein)
chain: MFSLALKCLISLSTIILLGLIIAYHTREVQLFVIDNGADDWRIAMTYERILYISLEMLVCAIHPIPGEYKFFWTARLAFSYTPSRAEADVDIILSIPMFLRLYLIARVMLLHSKLFTDASSRSIGALNKINFNTRFVMKTLMTICPGTVLLVFSISLWIIAAWTVRVCERYHDQQDVTSNFLGAMWLISITFLSIGYGDMVPHTYCGKGVCLLTGIMGAGCTALVVAVVARKLELTKAEKHVHNFMMDTQLTKRIKNAAANVLRETWLIYKHTKLLKKIDHAKVRKHQRKFLQAIHQLRSVKMEQRKLSDQANTLVDLSKMQNVMYDLITELNDRSEDLEKQIGSLESKLEHLTASFNSLPLLIADTLRQQQQQLLSAIIEARGVSVAVGTTHTPISDSPIGVSSTSFPTPYTSSSSC
modifications: left off: large carriers
notes: SK3-1B coding region inserted in-frame upstream to GFP in pEGFP-N1 expression vector; GFP-tagged truncated SK3 splice variant
As to B1, the “Kv currents (mean±SEM), maximum current at 30 mV” value in test [3] amounted to 475.96±61.78 pA. The “Kv1.3 current in transfected Jurkat T lymphocytes” value in test [1] (setting [7]) was “resembles that in untransfected cells”. Besides, the “Ratio of presumptive membrane to intracellular SK3 fluorescence (mean±SEM)” value in test [4] stood at 1.1±0.09. Also, the “SK2 current in transfected Jurkat T lymphocytes” value in test [2] (setting [7]) is given as “no SK2 current is observed”. In test [5], the “SK currents (mean±SEM), slope conductance at −80 mV” value is listed as 0.68±0.08 nS.

B2: SK3-1B-IRES-GFP: Untagged SK3-1B in bicistronic pIRES2-EGFP vector with GFP driven by an internal ribosome entry site (protein)
chain: MFSLALKCLISLSTIILLGLIIAYHTREVQLFVIDNGADDWRIAMTYERILYISLEMLVCAIHPIPGEYKFFWTARLAFSYTPSRAEADVDIILSIPMFLRLYLIARVMLLHSKLFTDASSRSIGALNKINFNTRFVMKTLMTICPGTVLLVFSISLWIIAAWTVRVCERYHDQQDVTSNFLGAMWLISITFLSIGYGDMVPHTYCGKGVCLLTGIMGAGCTALVVAVVARKLELTKAEKHVHNFMMDTQLTKRIKNAAANVLRETWLIYKHTKLLKKIDHAKVRKHQRKFLQAIHQLRSVKMEQRKLSDQANTLVDLSKMQNVMYDLITELNDRSEDLEKQIGSLESKLEHLTASFNSLPLLIADTLRQQQQQLLSAIIEARGVSVAVGTTHTPISDSPIGVSSTSFPTPYTSSSSC
For B2, in test [3], the “Kv currents (mean±SEM), maximum current at 30 mV” value was 560.37±75.9 pA. For the same molecule, in test [5], the “SK currents (mean±SEM), slope conductance at −80 mV” value was found to be 1.1±0.03 nS.
